In the data set the test system is Rap1 (Naumovozyma castellii). The data set can be described thus: competition EMSA. To be noted: labeled N1 probe, 10 mM Tris-HCl pH 7.5, 7 mM MgCl2, 8% glycerol, 10 fmol probe in 15 µl, ~0.6 µg Rap1 extract, 1.5 µg non-specific competitor (E. coli DNA, salmon sperm DNA …); for binding signal: 400x competitor, scale: fold shifted probe remaining vs telomeric competitor.

Binding signal and binding signal (fold shifted probe remaining (reference)) data for five sequences are collected here from paper PMC12408736.

Consider “AAGATTTGTATAGTCTGGGTAATGTATGTCAT (double strand) [ST-3]”, for which the binding signal came out at 91. On the same count and under the same terms, as for “AAGGATAGTTGGTCTGGGTGAGGATATTCTGTT (double strand) [ST-1]”, the figure is 60. As to “GTCTGGGTGTCTGGGTGTC (double strand) [telomeric ds-probe (19 bp)]”, the binding signal (fold shifted probe remaining (reference)) (unlabeled N1 as competitor) was 1. Regarding “GTGTCGTTAGGTACGGAGGGTGTTGTTTGGAATATG (double strand) [ST-4]”, the binding signal was found to be 33.

“TGTTGTTGATGGTGGTGTTGTTTTTTTGTC (double strand) [ST-2]”: the binding signal was found to be 66.
